Test results reported in the supplement of paper PMC10266784.

B1: library; numbered along this chain (parent)
chain: MAAAAAAAAEQQSSNGPVKKSMREKAVERRSVNKEHNSNFKAGYIPIDEDRLHKTGLRGRKGNLAICVIILLFILAVINLIITLVIWAVIRIGPNGCDSMEFHESGLLRFKQVSDMGVIHPLYKSTVGGRRNENLVITGNNQPIVFQQGTTKLSVENNKTSITSDIGMQFFDPRTQNILFSTDYETHEFHLPSGVKSLNVQKASTERITSNATSDLNIKVDGRAIVRGNEGVFIMGKTIEFHMGGNMELKAENSIILNGSVMVSTTRLPSSSSGDQLGSGDWVRYKLCMCADGTLFKVQVTSQNMGCQISDNPCGNTH

Variants of: B1
Assay: SGCB cell-surface expression functional score (HA stain, bin4 vs bin1, normalised to synonymous) (log10 ratio); higher = more cell-surface SGCB (functional)
Protocol: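 Deep mutational scan of full-length human SGCB (YFP-SGCB-HA, NNN codon sublibraries A-F) delivered by lentivirus at low MOI into ADG-HEK293 cells stably expressing SGCA, SGCD and SGCG. YFP-positive cells were stained for surface HA on unpermeabilized cells and FACS-sorted into bins. The functional score is log10(frequency in high bin 4 / frequency in low bin 1), normalised per chunk so that synonymous variants have mean 0 and SD 0.5. Scores are the median over codons and over duplicate biological replicates; scores below -0.5 are called non-functional. Scale: negative means deleterious.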

SGCB cell-surface expression functional score (log10) of substitutions, site by site:
I74: R -1.42 | S -0.05 | H 0.05 | M -0.6 | W 0.64 | E 0.75 | F -0.25 | L 0.44 | Q 0 | K 0.07 | C 0.07 | T -0.02 | Y -0.07 | N 0.04 | P -0.18 | V -0.01
L75: S 0.09 | P 0 | H 0.2 | E -0.08 | K 0.2 | G -0.34 | C -0.06 | T 0.27 | Q -0.18 | I 0.09 | A -0.22 | V -0.01 | F 0.18 | M 0.77 | N -0.4 | Y -0.25 | D -0.31 | W 0.39 | R -0.32
I82: Q 0.28 | S -0.18 | H 0.12 | C 0.11 | W -1.15 | T -0.05 | G -0.2 | M -0.24 | E -0.49 | A 0.03 | P 0.22 | R -0.66 | V 0.04 | D -0.85 | Y -0.15 | F 0.01 | L 0.07 | K 0.1 | N -0.69
F73: L 0.03 | N 0.47 | S -0.15 | D 0.36 | A 0.13 | R -0.59 | E 0.42 | M -0.01 | Q 0.6 | V -0.23 | P 0.07 | K 0.54 | T -0.22 | I -0.11 | H 0.54 | G 0.22 | C 0.34 | Y 0.84
A88: Y 0.01 | L 0.14 | R -0.43 | I 0.06 | M -0.05 | P -1.07 | C -0.27 | N -0.37 | D 0.41 | E -0.1 | W -0.36 | F 0.14 | T 0.17 | Q 0.15 | S 0.49 | V 0.25 | G 0.19 | K 0.62 | H 0.49
N79: G 0.06 | R -0.8 | M -0.67 | F -0.85 | W -1.05 | K -0.4 | H -0.33 | Q 0.29 | Y -0.74 | E 0.06 | V 0 | S -0.15 | A 0.21 | P 0 | C 0.15 | D -0.24 | I -0.01 | T -0.23 | L -0.15
I81: C -0.06 | R -0.73 | E 0.31 | V -0.03 | D 0.12 | P 0.12 | H 0.45 | T -0.23 | N 0.04 | G 0 | W -0.38 | K -0.06 | M -0.08 | Y -0.45 | Q 0.03 | S -0.14 | A 0.13 | F -0.08 | L 0.1
I78: R -0.54 | Q -0.47 | H 0.1 | G -0.04 | E -0.45 | V 0 | P -0.22 | M -0.34 | A 0.15 | D -0.1 | L -0.05 | W 0.33 | T -0.02 | S -0.22 | N 0.19 | F -0.56 | K 0.05 | C -0.19 | Y -0.68
V85: T -0.05 | R -0.06 | G 0.11 | N -0.37 | P -1.14 | Y -0.17 | D -0.21 | L 0.24 | I -0.18 | C -0.21 | Q 0.08 | H -0.11 | M 0.58 | A 0.3 | S -0.2 | W -0.09 | E 0.35 | K 0.01 | F -0.43
